Test results as given in the nanobody polyreactivity screen of Harvey et al. (2022).

Experiment: yeast display, Sf9 membrane polyspecificity reagent, FACS + sequencing; frameworks hold sequencing errors
Method in brief: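 After 36–48 hours of galactose induction, yeast (Saccharomyces cerevisiae BJ5465) displaying a synthetic nanobody library were stained at 4 °C for 1 hour with 10% biotinylated, detergent-solubilized Sf9 membrane reagent. Streptavidin microbeads enriched the stained cells before FACS sorting into low and high (top ~1%) gates on anti-HA and streptavidin fluorescence. Each clone's polyreactivity label reflects its gate of origin.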

QVQLVESGGGLVQAGGSLRLSCAASGSTFSPYAMGWYRQAPGKERELVAGISRGTSTNYADSVKGRFTISRDNAKNTVYLQMNSLKPVDTAVYYCAARAYHRYLPGYRVRFGDYYYWGQGTQVTVSS
polyreactivity (PSR sort gate): high polyreactivity

QVQLVESGGGLVQAGGSLRLSCAASGRTFVPYAMGWYRQAPGKEREFVAAISSRVGSTYYADSVKGRFTISRDNAKNTVYLQMNSLKPEDTAVYYCNAPFKPAGFYSAWKYDYWGQGTQVTVSS
polyreactivity (PSR sort gate): low polyreactivity

QVQLVESGGGLVQAGGSLRLSCAASGLPYAMGWYRQAPGKERELVAAISSSGGSTYYADSVKGRFTISRDNAKNNVYLQMNSLKPEDTAVYYCNRDIGGTSVLDDYWGQGTQVTVSS
polyreactivity (PSR sort gate): low polyreactivity

QVQLVESGGGLFQAGGSLRLSCAASGNIFVDYDMGWYRQAPGKERELDATITGTGDSTTYADSVKGRFTISRDIAKNTVYLQMNSLKPEDTAVYYCNTDLRLVYRTKGFISWGYDYWGQGTQVTVSS
polyreactivity (PSR sort gate): low polyreactivity

QVQLVESGVGLVQAGGSLRLSCAASGSTFGGYAMGWYRQAPGKDTEFVAAISYDGDSTYYADSVKGRFTISRDNAKNTVYLQMNSLKPEDTAVYYCAADISYHYGVWYFYYWGQGTQVTVSS
polyreactivity (PSR sort gate): low polyreactivity

QVQLVESGGGLVQAGGSLRLSCAASGSIFYVYAMGWYRQAPGKERELVAAITARVTSTYYADSVKGRFTISRDNAKNTVYLQMNSLKPEDTAVYSCAARTSYKTGYRKYDYWGQATQVTVSS
polyreactivity (PSR sort gate): low polyreactivity

QVQLVESGGGLVQAGGSLRLSCAASGSIFGPYAMGWYRQAPGKDRELVAAISLGGGSTSYADSVKGRFTISRDNAKNTVYIQMNSLKPEDTAVYYCNAEYYSGPYGYNGFDYWGQGTQVTVSS
polyreactivity (PSR sort gate): low polyreactivity

QVQLVESGGGLVQAGGSLRLSCAASGIIFWYNAMGWYRQAPWKERELVASISTGGRTYYADSVKGRFTISRDNAKNTVYLQMNSLKPEDTAVYYCAAASRVGFLYYYWGQGTQVTVSS
polyreactivity (PSR sort gate): low polyreactivity

QVQLVESGGGLVQAGGSLRLSCAASGSTFFYNAMGWYRQAPGKERELVAAITYRGGRTYYADSVKGRFTISRDIAKNTVYLQMKSLNPEDTSVYYCHAYPLYRVPDRLVVSDGNYWGQGTQVTVSS
polyreactivity (PSR sort gate): low polyreactivity

QVQLEESGGGLVQAGGSLRLSCAASGSIFVYNAMGWYRQAPGKERELVAAISQRGGSTYYADSVKGRFTISRDNDKNTVYLQMNSLKPEDTAVYYCAAGPGDSGDDYWGQGTQVTVAS
polyreactivity (PSR sort gate): low polyreactivity

QVQLVESGGGLVQAGGSLRLSCAASGSTFTSYAMGWYRQAPGKESEFVAAISWDGDNTYADSVKGRFTISRDNAKNTVYLQMNSLKPEDTAVYYCAASHQNGNFGWGYDSWGQGTQVTVSS
polyreactivity (PSR sort gate): high polyreactivity

QVQLVESGGGLVQAGGSLRLSCAASGSTFVYNVMGWYRQAPGKERELVAAITSCVRTYYADSVKGRFTISRDNAKNTVYLQMNSLKPEDTAVYYCAARGYYSVVEYYYWGQGTQVTVSS
polyreactivity (PSR sort gate): high polyreactivity

QVQLVESGGGLVQAGGSLRLSCAASGSTFDFNAMGWYRQAPGKERELVAAITYSGGSTYYADSVKGRFTISRDNAKNTVYLQMNSLKPVDTAVYYCAAEDVYPGSIDMDYWGQGTQVTVSS
polyreactivity (PSR sort gate): low polyreactivity

QVQLVESGGGLVQAGGSLRLSCAASGFTFSTYTMGWYRQAPGKERELVAAIRRSGDSTYYADSVKGRFTISRDNAKNTVYLQMNSLKPEDTAVYYCNAVRYRFERFDYWGQGTQVTVSS
polyreactivity (PSR sort gate): high polyreactivity

QVQLVESGGGLVQAGGSLRLSCAASGIFYFYAMGWYRQAPGKERELVAAITSSGGNTTYADSVKGRFTISRDNAKNTVYLQMNSLKPEDTAVYYCNAEAYSYGFDYWGQRTQVTVSS
polyreactivity (PSR sort gate): low polyreactivity

QVQLVESGGGLVQAGGSLRLSCAAYGSIFYFNAMGWYRQAPGKERELVAAITYNGGSTRYADSVKGRFTISRDNAKNTVYLQMNSLKPEDTAVYYCAARAKYGPEDGYWGQGTQVTVSS
polyreactivity (PSR sort gate): high polyreactivity

QVQLVESGGGLVQAGGSLRLNCAASGIIFIVYRMGWYRQAPGKERELVASINYGNGSTYYADSVKGRFTISRDNAKTTVYLQMNSLKQEDTAVYYCNADYTGTRTDSVTPEYEYWGQGTQVTVSS
polyreactivity (PSR sort gate): low polyreactivity

QVQLVESGGGLVQAGGILRLSWAASGFTFDSNAMGWYRQAPGKERELVASISSSGSTNYADCVKGRFTISRDNAKNTVDFQMNSLKPEDTAVYSCAAESRYPFIYEYWGQGTEVTVSS
polyreactivity (PSR sort gate): low polyreactivity

QVQLVESGGGLVQAGGSLRLSCAASGRNFYYNAMGWYRPAPGKERELVAAISSGGSTTYADSVKGRFTISRDNAKNTVYLQLNSLKPEDTAVYYCNADISAHYVIGVPTGYYWGQGTQVTVSS
polyreactivity (PSR sort gate): low polyreactivity

QVQLVESGGGLVQAGGSLRLSSAASGSTIGVNARGWYRQAPGKERELVAAISSSGSSTYADSVKGRFTISRDNAKNTVYLQMNSLKPEDTAVYYCNKEWYPYKHNYWGQGTQVTVSS
polyreactivity (PSR sort gate): low polyreactivity

QVQLVESGGGLVQAGGSLRLSCAASGGTFRRYAMGWSRQAPGKERELVAAITRSGTNTYYADSVKGRFTISRDNAKNTVYLQMNSLNPEDTAVYYCAADGFGKYWGQGTQVTVSS
polyreactivity (PSR sort gate): high polyreactivity

QVQLVESGGGLVQAGGSLRLSCAASGRIFLYYAMGWYRQAPGKERELVAASTYTDGSTYYADSVKGRFTISRDNAKNTVYLQMNSLKPEDTAVYYCAAEFYYYDYWGQGTQVTVSS
polyreactivity (PSR sort gate): low polyreactivity

QVQLVESGGGLVQAGGSLRLSCAASGRTFTRYAMGWYRQAPGKERELVAAISWSGGSTYYADSVKGRFTISRDNAKNTVYLQMNSLKPEDTAVYYCNAYYYYPEFNYWGLGTQVTVSS
polyreactivity (PSR sort gate): high polyreactivity

QVHLVDSAGGLVQAGGSLRLSCSASGSTFAVYAMGWYRQAPGKERELVAAISSSGDRTYYADSVKGRFTFSRDNAKNTVYLQMNILKPEDTAVYYCAVAIGYVYKTYYYWGQGTQVTVSS
polyreactivity (PSR sort gate): high polyreactivity

QVQLVESGGGLVQAGGSLRLSCAASGSIFGINAMGWYRQAPGKERELVAAITWSGGSTFYADSVKGRFTISRDNAKNTVYLQMNSLKPEDTAVYYCAASYSRWYWLYTSDYWGQGTQVTVSS
polyreactivity (PSR sort gate): high polyreactivity

QDQLVESGGGLVQAGGSLRLSCAASGRTFNYNTMGWYIQAPGKERELVAAINKGGTRTYYADSVKGRFTISRDNAKNTVYLEMNSLKPEDTAVYYCAARLYSYDYWGQGTQVTVSS
polyreactivity (PSR sort gate): high polyreactivity

QVQVVESGGGFVQAGGSLRLSCAASGRTFAVYAMGWYTQAPGKEREFVATISVSDGSTYYADTVKGRFTISRDNAKNTVYLQMNSLKPEDTAVYYCAAQRWTVKYNYWGQGTQVTVSS
polyreactivity (PSR sort gate): high polyreactivity

QVQLVESGGGLVQAGGSLRLSCAASGSTFIINAMGWYRQAPGKERELVAAITIGDITNYADSVKGRFTISRDNAKNTVYLQMNSLKPEDTAVYYCNKDALLFWHRDYVLDTYEYWGQGTQVTVSS
polyreactivity (PSR sort gate): low polyreactivity

QVQLVESGGRLVQAGGSLRLSCAASGRILYVNNMGWYRQAPGKERELVAGITSRVGSTYYADSVKGRFTISRDNAKNTVYLQMNSLKPEDSAVYYCNARSTWRHRRDQVDFDYWGQGTQVSVSS
polyreactivity (PSR sort gate): low polyreactivity

QVQLVESGGGLVQAGGSLRLSCAASGSILGVYTMGWYRQAPGKERELVAAITSSSSSTYADSVKGRFTISRDNAKNTVYLQMNSLKPEDTAVYYCATRGWSKQLYGGYTQYYYWGQGTQVTVSS
polyreactivity (PSR sort gate): high polyreactivity

QVQLVESGGGFVQAGGSLRLSCAASGSIFDPYAMGWYIQAPGKERELVAAINWSGDSTYYADSVKGRFTISRDNAKNTVYLQMYSLKPEDTAVYYCAADPTDDTHLYYYWRQGTQVTVSS
polyreactivity (PSR sort gate): low polyreactivity

QVQLVESGGGLVQAGGSLRLSCAASGSTFYVYAMGWYRQAPGKERELVAAIDSGDSTNYADSVKGRFTISRDNAKNTVYLQMNSLKPEDTAVYYCAADRTVYPFNYWGQGTQVTVSS
polyreactivity (PSR sort gate): low polyreactivity
